What was measured:
[1] = test system: AP-1 dependent reporter gene; experiment: AP-1 dependent reporter gene (TRE-lacZ), microinjection into Rat-1 cells; type: cell-based; conditions: for suppression of AP-1 reporter induction caused by anti-RKIP antibodies: MEK inhibitors given 1 h before microinjection
From the text: In one embodiment, the RKIP protein inhibiting agent can be an antibody specifically recognizing an RKIP motif. For example, to examine the relevance of the interaction between RKIP and the kinases of the Raf/MEK/ERK module in mammalian cells, endogenous RKIP \was inhibited by antibody microinjection. Since the AP-1 transcription factor is a major target of Raf signaling (Kortenjann et al. Mol. Cell. Biol. 14:4815-4824, 1994;Rapp et al., Oncogene 9:3493-3498, 1994; Kolch et al. Oncogene 8:361-370, 1993), the influence of RKIP on AP-1 activity was tested as shown in FIG. 3.
Microinjections of antibodies and reporter genes were performed as described previously (Lavinsky et al. Proc. Natl. Acad. Sci. USA 95:2920-2925, 1998; Rose et al. J. Cell. Biol. 119:1405-1411, 1992). Briefly, quiescent Rat-1 cells were microinjected with the reporter plasmids and antibodies and either left unstimulated or treated with 200 ng/ml TPA or 20 μg/ml forskolin. The RKIP antiserum was purified over a GST-RKIP affinity column. NIH3T3 cells were stained with an activation specific anti-phospho-ERK monoclonal antibody (Sigma). ERK phosphorylation was quantified by densitometry. For this purpose areas with microinjected cells were randomly photographed, and the staining intensity of whole individual cells was measured using the PcBAS software.
(§1) In one embodiment, the present invention provides a method of identifying a cell growth modulating agent by analyzing the effect of a candidate agent on the expression of an RKIP responsive reporter. For example, to show the effect of the RKIP on the activity of the AP-1 mediated transcription, NIH 3T3 cells were co-transfected with a 3xTRE-CAT reporter and the above described expression plasmids. NIH 3T3 and 208F cells were transfected in 6-well plates with 1 μg of pCMV5-BXB and 3 μg of p53/RKIP using Superfect (Qiagen).
AP-1 luciferase assays and microinjection experiments with affinity-purified RKIP antiserum and TRE-lacZ reporter plasmids were carried out as previously described (Yeung et al. Nature, 401:173-177, 1999). […] This induction was due to the activation of MEK, since it could be suppressed by two structurally different MEK inhibitors, U0126 and PD98059 (FIG. 7(a)). […] These antibodies are therefore useful tools for investigating the molecular mechanism by which RKIP works. The RKIP antiserum interfered with the binding of Raf-1 and MEK to RKIP (FIG. 7(b)). […] Furthermore, the RKIP antibodies reversed the inhibitory effect of RKIP on MEK phosphorylation by Raf-1 (FIG. 7(c)).

[2] = test system: Raf-1; experiment: Raf-1 immunoprecipitate kinase activity in transfected COS-1 cells; type: cell-based; conditions: co-transfection of RKIP
Description: (§2) The COS-1 cells were transfected as described (Catling et al., 1995, Mol. Cell. Biol. 15: 5214-5225) with 2 μg of HA-ERK-2, BXB, MEK and MEK-DD plasmids and the indicated amounts of p353/RKIP. The total amount of transfected DNA was kept constant using the appropriate vectors as carrier DNA. […] In addition, 0.1 μg of an AP1-Luc reporter was transfected for reporter gene assays. 48 hours post-transfection cells were serum starved for 20 hours and either left untreated or treated with TPA (200 ng/ml) or serum for 5 hours before being collected. Cells were lysed and cell extracts were used for immunoblotting or assayed for luciferase activity. For the GFP sorting experiments 5×10^6 NIH 3T3 cells were electroporated with either 100 μg pCMVori, 50 μg pCMV-GFP, and 50 μg pHACT or 100 μg pASC143, 50 μg CMV-GFP, and 50 μg CMV-HAC. Two days later cells were trypsinized and sorted for green fluorescent cells by preparative FACS. 100,000 GFP-positive cells were lysed in SDS-gel sample buffer and immunoblotted.
(§3) COS-1 cells were transiently transfected with HA-MEK and increasing amounts of RKIP expression vectors. Serum starved cells were stimulated with 100 ng/ml TPA for 20 minutes, and the kinase activities of Raf-1 and HA-MEK immunoprecipitates were measured.

[3] = target: T1, GST-Raf-1 (Homo sapiens, UniProt P04049); experiment: Binding of purified RKIP to inactive and activated GST-Raf-1 beads; conditions: recombinant RKIP produced in E. coli
T1 construct: made in house; host or cells: Sf-9 insect cells
Description: Activated GST-Raf-1 was produced in Sf-9 insect cells co-infected with RasV12 and Lck, which results in a robust activation of the catalytic activity. GST-Raf-1 proteins were purified by adsorption to glutathione Sepharose beads and incubated with recombinant RKIP produced in E. coli. […] We also tested whether activation affected the binding of MEK and ERK to RKIP. Purified MEK and ERK were phosphorylated in vitro with recombinant Raf-1 or Raf-1 plus MEK, respectively, and incubated with GST or GST-RKIP beads. The binding reaction products were washed, separated on SDS gels, and immunoblotted with the appropriate antisera. […] However, since only small fractions of MEK and ERK become phosphorylated, we also carried out the phosphorylation in the presence of […] The blots were autoradiographed to detect phosphorylated MEK and ERK and were subsequently stained with the cognate antisera to visualize total protein bound. Under these conditions, binding of phosphorylated MEK and ERK to RKIP was evident.

[4] = test system: cell lines resistant to apoptosis; experiment: Sensitivity to apoptotic stimuli on RKIP expression; type: cell-based; conditions: expression of RKIP; data not shown
[5] = test system: AP-1 activity; experiment: 3xTRE-CAT reporter in NIH 3T3 cells co-transfected with RKIP; type: cell-based; conditions: RKIP transfection
Description: as §1

[6] = test system: MEK; experiment: In vitro kinase assay: MEK; type: biochemical
Description: Kinase assays were done as described in Hafner et al. (Mol. Cell. Biol. 14:6696-6703, 1994). Activated Raf-1 was generated by co-expressing GST-Raf-1 with v-Ras and Lck in Sf-9 cells and collected on glutathione Sepharose beads. Subsequent thrombin cleavage released Raf-1 which was fully active and >90% pure. To activate MEK and ERK in vitro, 20 ng activated Raf-1 was incubated with 40 ng purified His/MEK-1 and 250 ng GST-ERK-2 in Raf kinase buffer containing 20 μM ATP for 20 minutes at 30° C. To measure kinase activities at individual steps the respective downstream components were omitted. The activation reactions were diluted into 50 μl Raf kinase buffer containing 20 μm ATP to yield equimolar concentrations of the kinases to be assayed and incubated with increasing amounts of purified RKIP on ice for 10 minutes. Similar assays may be performed with smaller polypeptides comprising RKIP motifs, or even with a peptide consisting essentially of an RKIP motif as defined herein. Then, 2 μCi [^32P]-γ-ATP and recombinant substrates were added and incubated for 20 minutes at 30° C. As substrates 200 ng kinase negative His/MEK-1 was used for Raf, 1 μg kinase negative GST-ERK for MEK, and 1 μg GST-ELK (New England Biolabs) for ERK. In some assays 1 μg GST-MEK was used as Raf-1 substrate with identical results. […]

[7] = target: T2, Raf-1-MEK complexes (Homo sapiens, UniProt P04049); experiment: Disruption of the Raf-1-MEK complex on glutathione Sepharose beads; type: binding; conditions: in vitro, purified RKIP
T2 construct: made in house; host or cells: Sf-9 insect cells
Description: In vitro binding assays contained 5 μg of GST-fusion protein immobilized on glutathione Sepharose beads and 0.5-5 μg purified recombinant protein in PBS supplemented with 10% bovine serum as nonspecific competitor. Sf-9 cell lysates were used as source of Raf proteins (Hafner et al., 1994, Mol. Cell. Biol. 14: 6696-6703). After incubation for 1 hour at 4° C. the samples were washed 4 times with PBS, resolved by SDS-PAGE and blotted. The blots were developed using ECL (Amersham).
GST-MEK and Raf-1 were co-expressed in Sf-9 cells. The GST-MEK-Raf-1 complex was purified by adsorption to glutathione Sepharose beads, washed, and resuspended in PBS. Purified RKIP was added at the concentrations indicated. After 1 hour at 4° C., the GST-MEK beads were washed three times with PBS and examined for associated proteins by Western blotting (WB) with the indicated antisera.

[8] = test system: ERK; experiment: HA-ERK immunoprecipitate kinase activity in transfected COS-1 cells; type: cell-based
Description: as §2
COS-1 cells were transfected with the indicated expression plasmids plus increasing amounts of RKIP. HA-ERK-2 was immunoprecipitated and assayed with MBP.
COS-1 cells were transfected with the indicated expression vectors and the kinase activity of HA-ERK immunoprecipitates was examined.

[9] = target: T3, Raf-1 (Homo sapiens, UniProt P04049); experiment: In vitro kinase assay of reconstituted Raf/MEK/ERK cascade: Raf-1; type: biochemical
T3 construct: GST (cleaved yes); made in house; host or cells: Sf-9 insect cells
Description: (§4) Kinase assays were done as described in Hafner et al. (Mol. Cell. Biol. 14:6696-6703, 1994). Activated Raf-1 was generated by co-expressing GST-Raf-1 with v-Ras and Lck in Sf-9 cells and collected on glutathione Sepharose beads. Subsequent thrombin cleavage released Raf-1 which was fully active and >90% pure. To activate MEK and ERK in vitro, 20 ng activated Raf-1 was incubated with 40 ng purified His/MEK-1 and 250 ng GST-ERK-2 in Raf kinase buffer containing 20 μM ATP for 20 minutes at 30° C. To measure kinase activities at individual steps the respective downstream components were omitted. The activation reactions were diluted into 50 μl Raf kinase buffer containing 20 μm ATP to yield equimolar concentrations of the kinases to be assayed and incubated with increasing amounts of purified RKIP on ice for 10 minutes. Similar assays may be performed with smaller polypeptides comprising RKIP motifs, or even with a peptide consisting essentially of an RKIP motif as defined herein. Then, 2 μCi [^32P]-γ-ATP and recombinant substrates were added and incubated for 20 minutes at 30° C. As substrates 200 ng kinase negative His/MEK-1 was used for Raf, 1 μg kinase negative GST-ERK for MEK, and 1 μg GST-ELK (New England Biolabs) for ERK. In some assays 1 μg GST-MEK was used as Raf-1 substrate with identical results.

[10] = test system: NIH 3T3 and 208F cells; experiment: Transformation assays (morphological transformation, focus formation, soft agar); type: cell-based
From the text: Additionally, NIH 3T3 cells were transfected with BXB, alone or together with RKIP (linked to neomycin/G418 resistance encoding gene). The G418-resistant colonies were counted and scored for morphological transformation. Aliquots of the same transfection were allowed to grow to confluency without drug and were scored for focus formation. A BXB-transformed cell line was infected with LXSH-RKIP retrovirus or LXSH (hygromycin resistant) and seeded in soft agar in the presence of hygromycin. […] The data are expressed as the reduction in focus formation relative to focus formation upon co-transfection with empty vector (set to 100%).

[11] = target: T4, ERK (Homo sapiens, UniProt P28482); experiment: In vitro kinase assay: ERK; type: biochemical; conditions: purified RKIP, recombinant proteins in vitro
T4 construct: GST; made in house
Description: as §4

[12] = target: T5, MEK (Homo sapiens, UniProt Q02750); experiment: HA-MEK immunoprecipitate kinase activity in transfected COS-1 cells; type: cell-based; conditions: co-transfection of RKIP, dose dependent
T5 construct: expressed in transfected cells; host or cells: COS-1
Description: as §2, §3

[13] = test system: MEKK-1; experiment: MEK phosphorylation by immunoprecipitated MEKK-1; type: biochemical; conditions: MEKK-1 immunoprecipitated from COS-1 cells, knMEK substrate
Description: “BSA” indicates use of 15 μM bovine serum albumin; “Co.” substrate alone; and “kn”, kinase negative mutant. […] HA-MEK-DD or HA-MEK-1 expressed in COS-1 cells were immunoprecipitated with anti-HA antibodies from serum starved cells or TPA treated cells, respectively, and assayed for kinase activity. […] MEKK-1 was immunoprecipitated from transiently transfected COS-1 cells and used to phosphorylate knMEK.

[14] = purified RKIP, recombinant proteins in vitro
[15] = microinjection of an RKIP expression vector

T4 sequence (P28482 whole entry): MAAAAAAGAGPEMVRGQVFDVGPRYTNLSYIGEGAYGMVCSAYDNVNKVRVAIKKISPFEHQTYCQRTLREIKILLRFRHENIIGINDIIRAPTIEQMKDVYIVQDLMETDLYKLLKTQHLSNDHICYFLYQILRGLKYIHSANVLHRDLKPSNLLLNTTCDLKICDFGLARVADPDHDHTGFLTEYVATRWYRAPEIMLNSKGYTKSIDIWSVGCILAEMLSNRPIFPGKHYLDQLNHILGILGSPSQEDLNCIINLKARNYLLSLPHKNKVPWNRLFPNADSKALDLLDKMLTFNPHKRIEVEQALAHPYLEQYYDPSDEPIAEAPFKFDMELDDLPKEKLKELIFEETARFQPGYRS

Molecule: COc1cccc(-c2cc(=O)c3ccccc3o2)c1N [PD98059, reference compound]
- suppression of AP-1 reporter induction caused by anti-RKIP antibodies [1]: suppressed

Molecule: N#CC(=C(/N)Sc1ccccc1N)/C(C#N)=C(\N)Sc1ccccc1N [U0126, reference compound]
- suppression of AP-1 reporter induction caused by anti-RKIP antibodies [1]: suppressed

B1: RKIP: Raf kinase inhibitor protein; used as purified recombinant protein or expressed from vector p353/RKIP (protein, UniProt P30086 2-187, looked up)
Phosphatidylethanolamine-bindi …: PVDLSKWSGPLSLQEVDEQPQHPLHVTYAGAAVDELGKVLTPTQVKNRPTSISWDGLDSGKLYTLVLTDPDAPSRKDPKYREWHHFLVVNMKGNDISSGTVLSDYVGSGPPKGTGLHRYVWLVYEQDRPLKCDEPILSNRSGDHRGKFKVASFRKKYELRAPVAGTCYQAEWDDYVPKLYEQLSGK
- activation of Raf-1 by TPA [2]: only a small influence
- RKIP binding to activated versus inactive GST-Raf-1 [3]: Less RKIP bound
- sensitivity to apoptotic stimuli [4]: rendered sensitive
- basal and BXB induced AP-1 activity [5]: diminished
- inhibition of MEK-DD or MEK activated by TPA treatment of cells ([6]; immunoprecipitated from COS-1 cells): failed to inhibit
- ERK phosphorylation by MEK [6, 14]: did not inhibit
- physical interaction between Raf-1 and MEK [7]: disrupted
- ERK activation by MEK-DD ([8]; RKIP co-transfection): did not affect
- activation of ERKs by v-Ras or v-Src oncogenes ([8]; RKIP overexpression): downregulated
- BXB induced activation of ERK ([8]; increasing amounts of RKIP expression plasmid, dose dependent): inhibited
- mechanism of Raf-1 inhibition ([9]; Lineweaver-Burk plot, GST-MEK-1 substrate): competitive inhibitor
- Raf-1 autophosphorylation or phosphorylation of MBP by Raf-1 ([9]; in vitro): did not interfere
- phosphorylation of MEK by Raf-1 [9, 14]: decreased
- induction of foci by v-fos or mutationally activated MEK alleles ([10]; RKIP overexpression): only to a small extent
- v-src transformation ([10]; RKIP overexpression): failed to inhibit
- total colony yield ([10]; RKIP overexpression with BXB): decreased
- transformation efficiency of BXB ([10]; RKIP overexpression, morphological transformation, focus formation, anchorage independent growth): significantly reduced
- ELK phosphorylation by ERK [11]: did not inhibit
- AP-1 induction by TPA and BXB [1, 15]: impaired
- AP-1 stimulation by ERK-1 [1, 15]: did not interfere
- activation of MEK by TPA [12]: strongly inhibited
- MEK phosphorylation by MEKK-1 [13]: did not prevent
